We go through three substances from paper PMC11927390.

In one assay the target is human NKG2D Fc (human) (UniProt P26718). Put plainly: SPR; Biacore 8K or 8K+, 37°C; NKG2D Fc captured (Protein A chip as told for human NKG2D-Fc), ULBP6 as analyte in HBS-P (0.01 mol/L HEPES pH 7.4, 0.15 mol/L NaCl, 0.005% P20); kinetic or steady-state fit not given.
Another assay has as its target murine NKG2D Fc (murine) (UniProt O54709). Described as above.
Assay [1] addresses FcγRIIIa on the effector cells of the Promega ADCC Reporter Bioassay (human) (UniProt P08637).
Assay [2] deals with recombinant soluble ULBP6-02 (human) (UniProt Q5VY80).
The target of assay [3] is human FcγRI, biotinylated (human) (UniProt P12314). Put plainly: SPR; Biacore, 37°C; biotinylated FcγRs captured on Series S Sensor Chip CAP; threefold serial dilutions of the anti-ULBP6/2/5 antibodies injected at 30 μL/minute; HBS-P. In general terms: Surface plasmon resonance follows binding to a sensor surface in real time, without labels.
Chain of human FcγRI, biotinylated (human) (P12314 16-374): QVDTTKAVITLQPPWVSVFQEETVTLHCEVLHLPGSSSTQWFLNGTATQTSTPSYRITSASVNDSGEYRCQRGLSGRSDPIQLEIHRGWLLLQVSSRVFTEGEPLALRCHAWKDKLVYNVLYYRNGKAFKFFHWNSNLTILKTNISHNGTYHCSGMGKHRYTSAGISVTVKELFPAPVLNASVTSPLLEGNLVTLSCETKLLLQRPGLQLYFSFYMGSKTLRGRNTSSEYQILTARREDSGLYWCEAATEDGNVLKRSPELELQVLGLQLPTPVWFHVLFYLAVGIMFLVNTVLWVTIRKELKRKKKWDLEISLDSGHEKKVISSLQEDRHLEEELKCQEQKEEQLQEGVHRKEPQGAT
Assay [4] has as its target human FcγRIIIa-F176, biotinylated (human) (UniProt P08637). The assay is described as above.
In assay [5] the target is human FcγRIIIa-V176, biotinylated (human) (UniProt P08637). The assay is described as above.
Chain of human FcγRIIIa-V176, biotinylated (human) (P08637 17-254 F176V): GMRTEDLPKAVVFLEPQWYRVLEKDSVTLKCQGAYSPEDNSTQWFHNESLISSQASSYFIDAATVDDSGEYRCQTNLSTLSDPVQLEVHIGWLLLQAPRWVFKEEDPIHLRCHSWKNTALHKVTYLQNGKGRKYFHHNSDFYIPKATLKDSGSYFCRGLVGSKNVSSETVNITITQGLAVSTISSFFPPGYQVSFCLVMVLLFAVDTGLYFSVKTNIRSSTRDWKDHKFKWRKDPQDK
In assay [6] the target is human FcγRIIa-H167, biotinylated (human) (UniProt P12318). The description is as above.
Chain of human FcγRIIa-H167, biotinylated (human) (P12318 34-317): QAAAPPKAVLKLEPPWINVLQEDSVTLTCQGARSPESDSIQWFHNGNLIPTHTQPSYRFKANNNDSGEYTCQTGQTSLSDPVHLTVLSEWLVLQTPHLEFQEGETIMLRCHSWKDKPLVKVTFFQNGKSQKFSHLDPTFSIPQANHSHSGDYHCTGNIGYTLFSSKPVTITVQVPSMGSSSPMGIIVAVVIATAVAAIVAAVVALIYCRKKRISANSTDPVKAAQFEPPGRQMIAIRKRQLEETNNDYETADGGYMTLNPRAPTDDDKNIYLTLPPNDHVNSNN
Assay [7] addresses human FcγRIIa-R167, biotinylated (human) (UniProt P12318). Described as above.
The target in assay [8] is human FcγRIIb, biotinylated (human) (UniProt P31994). Described as above.
Chain of human FcγRIIb, biotinylated (human) (P31994 43-310): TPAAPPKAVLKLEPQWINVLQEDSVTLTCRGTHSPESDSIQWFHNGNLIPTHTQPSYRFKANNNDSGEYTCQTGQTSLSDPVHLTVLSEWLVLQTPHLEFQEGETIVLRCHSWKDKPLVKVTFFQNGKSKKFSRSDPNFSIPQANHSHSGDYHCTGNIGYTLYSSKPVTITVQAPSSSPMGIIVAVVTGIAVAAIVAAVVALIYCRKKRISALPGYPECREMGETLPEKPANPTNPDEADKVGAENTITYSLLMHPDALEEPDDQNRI
Assay [9] has as its target recombinant soluble ULBP6-02 (human) (UniProt Q5VY80). This is another data set of the same source.

What is called Kd is the equilibrium constant for the complex coming apart.

Chain of human NKG2D Fc (human) (P26718 73-216): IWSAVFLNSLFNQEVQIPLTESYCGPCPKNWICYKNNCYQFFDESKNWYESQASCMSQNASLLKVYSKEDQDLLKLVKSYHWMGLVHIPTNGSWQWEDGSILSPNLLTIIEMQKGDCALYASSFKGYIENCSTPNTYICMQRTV
Chain of human FcγRIIIa-F176, biotinylated (human) (P08637 17-254): as the sequence (P08637 17-254 F176V) above, with V160F counted along it
Chain of FcγRIIIa on the effector cells of the Promega ADCC Reporter Bioassay (human) (P08637 17-254): as the sequence (P08637 17-254 F176V) above, with V160F counted along it
Chain of murine NKG2D Fc (murine) (O54709 90-232): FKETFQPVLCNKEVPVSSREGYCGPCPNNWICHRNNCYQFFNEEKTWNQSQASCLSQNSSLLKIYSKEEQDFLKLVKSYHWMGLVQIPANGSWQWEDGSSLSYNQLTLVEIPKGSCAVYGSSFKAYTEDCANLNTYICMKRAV
Chain of human FcγRIIa-R167, biotinylated (human) (P12318 34-317 H167R): as the sequence (P12318 34-317) above, with H134R counted along it

As for “human ULBP6 (analyte of Supplementary Table S6) (from UniProt Q5VY80 26-218) (ligand)”, the values for the Kd with human NKG2D Fc (human) and with murine NKG2D Fc (murine) were 0.8 nM and 0.64 nM, respectively.
In the case of “23ME-01473, humanized Fc effector-enhanced (afucosylated) anti-ULBP6/2/5 antibody”, the EC50 of FcγRIIIa activation (RLU), Promega ADCC reporter assay with luciferase effector cells and COV644 target cells, 0.0001 to 10 nmol/L antibody in assay [1] was determined as 0.0532 nM. For the same substance, in assay [2], the IC50 (so in the source) of IFNγ secretion by IL-2/IL-15-primed PBMCs cocultured with COV644 cells and 50 nmol/L sULBP6-02, 0.05-200 nmol/L 23ME-01473, donor d1213; pair blocked: sULBP6-02 and NKG2D was 21.5 nM. Also, in [2], the IC50 (so in the source) of IFNγ secretion by IL-2/IL-15-primed PBMCs cocultured with COV644 cells and 50 nmol/L sULBP6-02, 0.05-200 nmol/L 23ME-01473, donor d1802; pair blocked: sULBP6-02 and NKG2D stood at 25.5 nM. The IC50 (so in the source) of IFNγ secretion by IL-2/IL-15-primed PBMCs cocultured with COV644 cells and 50 nmol/L sULBP6-02, 0.05-200 nmol/L 23ME-01473, donor d3761; pair blocked: sULBP6-02 and NKG2D in assay [2] worked out at 13.6 nM. Also, the IC50 (so in the source) of IFNγ secretion by IL-2/IL-15-primed PBMCs cocultured with COV644 cells and 50 nmol/L sULBP6-02, 0.05-200 nmol/L 23ME-01473, donor d33936; pair blocked: sULBP6-02 and NKG2D in assay [2] was 25.6 nM. Also, the Kd in assay [3] turned out to be 0.92 nM; in assay [4], 25.5 nM; in [5], 6.74 nM; in assay [6], 270 nM; in assay [7], 406 nM; in [8] it was 2230 nM.
For the substance “Fc-Att-anti-ULBP6/2/5, effector-attenuated (N297G) version of 23ME-01473 (antibody)”, in assay [9], the IC50 (so in the source) of the rescue of IFNγ production by PBMCs cocultured with COV644 cells in the presence of sULBP6, donor d1212; pair blocked: sULBP6-02 and NKG2D was determined as 26 nM; the IC50 (so in the source) of the rescue of IFNγ production by PBMCs cocultured with COV644 cells in the presence of sULBP6, donor d1939; pair blocked: sULBP6-02 and NKG2D was 10.6 nM; the IC50 (so in the source) of the rescue of IFNγ production by PBMCs cocultured with COV644 cells in the presence of sULBP6, donor d33936; pair blocked: sULBP6-02 and NKG2D was found to be 16.5 nM.
